We go through 4 molecules from patent CN113583127A (MABWELL SHANGHAI BIOTECHNOLOGY CO LTD, dated 2021).

Residue numbers refer to the chain shown, from its start.

In experiment [1] the target is mFc-NKG2A-CD94重组蛋白 (human) (UniProt P26715). In words: BLI (Octet QKe), antibody captured on AHC probe, mFc-NKG2A-CD94 as analyte, 1:1 fit. A general note: BLI is a label-free optical method that tracks binding on a fibre tip over time.
Experiment [2] concerns the target T1, 人NKG2A/CD94 (Flp-in CHO稳定表达细胞株表面) (human, UniProt P26715 1-233; Q13241 1-179).
T1 construct: whole, on cells; also called 细胞表面人NKG2A/CD94; huNKGA/huCD94
Briefly: flow cytometry, Fab titrated on CHO cells expressing human NKG2A/CD94; column head KD[nM], title and text call it EC50.

Another experiment deals with PD-L1-ECD-mFc (UniProt Q9NZQ7). Briefly: competition ELISA: PD-1-hFc coated, 3 nM PD-L1-ECD-mFc with titrated antibody, detection with HRP anti-mouse Fc. For orientation: In an ELISA, binding on a coated surface is turned into a signal by an enzyme label.
UniProt Q9NZQ7, sequence (Q9NZQ7 19-239): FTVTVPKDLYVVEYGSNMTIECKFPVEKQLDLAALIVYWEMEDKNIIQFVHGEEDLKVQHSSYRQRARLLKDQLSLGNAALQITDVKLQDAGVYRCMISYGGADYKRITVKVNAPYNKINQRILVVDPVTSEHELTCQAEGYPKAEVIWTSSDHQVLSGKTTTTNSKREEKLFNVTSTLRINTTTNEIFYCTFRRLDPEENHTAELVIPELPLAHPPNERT

T1 sequence (P26715 whole entry, chain 1 of 2): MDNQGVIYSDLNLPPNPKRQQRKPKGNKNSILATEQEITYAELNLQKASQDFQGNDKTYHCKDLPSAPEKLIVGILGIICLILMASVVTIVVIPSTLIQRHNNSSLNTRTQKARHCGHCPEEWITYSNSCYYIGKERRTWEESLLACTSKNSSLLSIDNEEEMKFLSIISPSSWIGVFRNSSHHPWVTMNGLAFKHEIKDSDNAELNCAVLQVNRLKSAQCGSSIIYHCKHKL
T1 sequence (Q13241 whole entry, chain 2 of 2): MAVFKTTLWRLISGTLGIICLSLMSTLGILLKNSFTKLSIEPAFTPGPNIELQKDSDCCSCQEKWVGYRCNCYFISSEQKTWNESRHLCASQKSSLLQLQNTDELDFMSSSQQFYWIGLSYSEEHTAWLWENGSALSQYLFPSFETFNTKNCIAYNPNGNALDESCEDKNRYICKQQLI

B1: hum270重组抗体 (antibody, V domains shown)
VH: EVQLVQSGAEVKKPGASVKVSCKASGYTFTSYWMNWVRQAPGQGLEWMGRIDPYDSETHYAQKLQGRVTMTTDTSTSTAYMELRSLRSDDTAVYYCARGGYDFDVGTLYWFFDVWGQGTTVTVSS
VL: DIQMTQSPSSLSASVGDRVTITCRASENIYSYLAWYQQKPGKAPKLLIYNAKTLAEGVPSRFSGSGSGTDFTLTISSLQPEDFATYYCQHHYGTPRTFGGGTKVEIK
The term Kd denotes the constant that tells how readily two partners part at equilibrium. What is called koff is the rate constant with which the complex falls apart. High values mean a short-lived complex, low ones a long-lived complex. By kon is commonly meant the second-order rate constant of association. High values mean fast association, low ones slow association. With B1, in experiment [1], the Kd came out at 0.408 nM, the koff came to 0.000196 s⁻¹ and the kon was determined as 481000 M⁻¹ s⁻¹.

B2: AM10 Fab (Fab, V domains shown)
VH: B1 VH with G26S, T28D, T30S, S31W, M34I
VL: B1 VL
For the molecule B2, in experiment [2], the Kd was found to be 1.43 nM. This lies in the single-digit nanomolar range.

B3: AM00 Fab (Fab, V domains shown)
VH: B1 VH
VL: B1 VL
notes: also called 亲本抗体AM00; 模板抗体Fab
For the molecule B3, in experiment [2], the Kd amounted to 189 nM.

B4: 抗NKG2A和抗PD-L1双特异性抗体hum270-F2 (bispecific antibody, part only; not given: Anti-PD-L1 nanobody F2, linker, constant regions, IgG4, not shown: a dimerising Fc or GST)
heavy, part: B1 VH
light, part: B1 VL
The IC50 is the point on the concentration scale where inhibition reaches its midpoint. In the experiment with PD-L1-ECD-mFc, B4 registered an IC50 of 2.86 nM. This counts as single-digit nanomolar.
